This data set deals with Bacillus subtilis DB104 (SP-AmyQ fusion secretion). Kind of data set: AmyQ secretion efficiency, weighted average sort bin (1 = best secretion, 10 = worst) (bin number (weighted average, 1-10)); higher = lower secretion efficiency. An outline of the steps:
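Secretion score gives the read-frequency-weighted average bin number, normalised to beads per bin, with low-abundance sequences left out. A B. subtilis DB104 library expressing mature AmyQ fused to designed signal peptides, integrated at amyE, was encapsulated with fluorescein-starch at about 0.3 cells per ~65 nL alginate bead. Beads were grown about 13 h at room temperature, stained with nile red, and the occupied ones were sorted by large-particle flow cytometry into 10 equally populated bins by green/red fluorescence ratio before the amplicons from each bin were Illumina-sequenced.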

As for MTSGTFIIWTIILGALLVCCIAVAYTLTKSQAGASSS, the AmyQ secretion efficiency is 4.88.

MRKKCSVCLWILVLLLSCDSGKSAYAATS had an AmyQ secretion efficiency of 3.15.

MKSKGSIMACLILFSFTITGDPNTETISAFSN had an AmyQ secretion efficiency of 4.93.

Sequence MLKKVILAAFILVGSTLGEDSFSSDASAKHV registered an AmyQ secretion efficiency of 4.32.

Consider MLKKIALTLCPAIVGSLLFFTAIASAHVS, for which the AmyQ secretion efficiency stood at 3.46.

Sequence MNFKKTVVSALSISALALSVSGVASAHTI gave an AmyQ secretion efficiency of 3.63.

MKKTIMSFVAVAALSTTAFGAHGVFPASASAKEI had an AmyQ secretion efficiency of 3.09.

As to MRKKLKWLSFLLGFIILLFLFDEEEDDFSNNDS, the AmyQ secretion efficiency worked out at 5.38.

As to MKRFSTAYLLLGILCSAAVFLIPQPGRALGAEV, the AmyQ secretion efficiency was 2.89.

For the sequence MAIIIAIIAAVIVIAALITFNVRNAKKR, the AmyQ secretion efficiency was 7.34.

Regarding MKRRKVLTGSVLSLGLLVSASPAFATSP, the AmyQ secretion efficiency was determined as 2.61.

Regarding MKKGIIRFLLVSFVLFFALSTGITGVQAAPK, the AmyQ secretion efficiency is 1.02.

Sequence MKKKQVMLALTAAAGLGLTALKHKKKKAKAAPL came in with an AmyQ secretion efficiency of 6.6.

As for MKTKTLFIFSAILTLSIFAPNETFAQEE, the AmyQ secretion efficiency turned out to be 1.78.

In turn, MLKKKWMVGLLAGCLAAGGFSYNAFVTEN yielded an AmyQ secretion efficiency of 7.21.

In turn, MGLGKKLSVAVAASFMSLSISLPGRQAAEG showed an AmyQ secretion efficiency of 3.87.

As to MSMWMITIAMLILAGIALFVFISPLKSHKT, the AmyQ secretion efficiency amounted to 7.42.

Regarding MLKKKWMTRGLAGCLAAGGFSYNAFATEN, the AmyQ secretion efficiency worked out at 6.77.

Sequence MRPVFPLILSAVLFLFGARQTEASASKR registered an AmyQ secretion efficiency of 5.49.

Turning to MAIIIAIIAAVIVIAALITFNVANASPG, the AmyQ secretion efficiency was found to be 5.63.

As for MRPVFPLILSAVLFLSCFFGARQTESSASKR, the AmyQ secretion efficiency came to 3.91.

The sequence MPYLKRVLLLLVTGLFMSLFAVTATASMQTG showed an AmyQ secretion efficiency of 1.29.

MKRIRIPMTLALGAALTIAPLSFFSAEEN had an AmyQ secretion efficiency of 6.31.

Turning to MFGMSTISLLIIFLLASAVLAKPIEAHTV, the AmyQ secretion efficiency was determined as 2.54.

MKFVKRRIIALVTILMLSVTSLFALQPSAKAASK: the AmyQ secretion efficiency amounted to 2.32.

Sequence MTKKAWFLPLVCVLLISGWLAPAASASVQTT registered an AmyQ secretion efficiency of 2.48.

MKVLLSALLLLLFAFEPSVSGKKL yielded an AmyQ secretion efficiency of 6.17.

Sequence MKKSQYTTLFIVFICFFVLFSVHPIAAAAADS registered an AmyQ secretion efficiency of 2.98.

Regarding MSGSTLIILALFVLSLGLLSFMVTPVSAASK, the AmyQ secretion efficiency turned out to be 4.39.

In the case of MRKTIFAFLTGLMMFGTITAASASPF, the AmyQ secretion efficiency turned out to be 4.61.

For MRPVFPLILSAVLFLSCFFGARQTEASASPF, the AmyQ secretion efficiency came out at 2.82.

Sequence MRKTIFAFLTGLMMFGTITAQSASPD gave an AmyQ secretion efficiency of 5.11.

MKKLLAAGIIGLLTVEDDEDDSFAAEK: the AmyQ secretion efficiency is 8.23.

With MKKAFLVFLSVVLVTTVFLVKQQESVAQHKQL, the AmyQ secretion efficiency turned out to be 4.12.

Sequence MKLWMRKTLVVLFTIVTFGLVSPPAASMADKP yielded an AmyQ secretion efficiency of 1.85.

The sequence MKKIWIGMLAAAVLLLRKRKKKSLADAA displayed an AmyQ secretion efficiency of 6.58.

Take MKRTWNVCLTALLSVPFHAEAKKP: the AmyQ secretion efficiency came out at 6.8.

In the case of MLTKRLLTIYIMLLGLIAWFPGAAQGEEK, the AmyQ secretion efficiency turned out to be 2.56.

Consider MKKRRKKLLAAGIIGLLTVSIASPSFAAEK, for which the AmyQ secretion efficiency was determined as 3.36.

MRSYIKVKKKCRLGLILFVPTALADNS: the AmyQ secretion efficiency is 6.78.

On to MRKSLITLGLASVISIIVFLIAFTSKTASAETL, for which the AmyQ secretion efficiency worked out at 2.48.

In the case of MRKKRVITCVMAASPAGYASAKED, the AmyQ secretion efficiency is 7.41.

MPYLKRVLLLLVTGLFMSLFAVTATASFQTG gave an AmyQ secretion efficiency of 2.53.

Sequence MKRIRIPMTLALGAALTIAPLDEEDDDASAEEN registered an AmyQ secretion efficiency of 5.27.

Take MKKLLAAGIIGLLTVSIASPSFYAEK: the AmyQ secretion efficiency turned out to be 7.71.

Values taken from the supplement of paper PMC9942255.
